In the Human Domainome abundance scans (Beltran et al. 2025) one finds abundance fitness data, which are given here for 47 variants.

The chains are these.
B1: PDZ and LIM domain protein 2, residues 284 to 339; numbered along this chain, Q96JY6 (parent)
chain: HTCEKCSTSIANQAVRIQEGRYRHPGCYTCADCGLNLKMRGHFWVGDELYCEKHAR

± gives the uncertainty stated by the source.

Variants of B1 are the subject of the data set. The experiment in a line: abundance fitness (aPCA) (normalised: wild type 0, dead -1); higher = more abundant; growth selection in yeast, the domain comes from the species named. Particulars: Homo sapiens.
As to HTCEKCSTSIANQAVRIQEGRYRHPGCYTCADCGLNLKMRAHFWVGDELYCEKHAR, the abundance fitness is -0.139 ± 0.058.

As to HTCEKCSTSIANQAVRIQEGRYRHPGCYTCADCGLNLKMRCHFWVGDELYCEKHAR, the abundance fitness is -0.408 ± 0.095.

With HTCEKCSTSIANQAVRIQEGRYRHPGCYTCADCGLNLKMRNHFWVGDELYCEKHAR, the abundance fitness was -0.146 ± 0.22.

Regarding HTCEKCSTSIANQAVRIQEGRYRHPGCYTCADCGLNLKMRHHFWVGDELYCEKHAR, the abundance fitness was -0.682 ± 0.36.

HTCEKCSTSIANQAVRIQEGRYRHPGCYTCADCGLNLKMREHFWVGDELYCEKHAR: the abundance fitness was -0.191 ± 0.088.

As to HTCEKCSTSIANQAVRIQEGRYRHPGCYTCADCGLNLKMRFHFWVGDELYCEKHAR, the abundance fitness was -0.259 ± 0.18.

For HTCEKCSTSIANQAVRIQEGRYRHPGCYTCADCGLNLKMRLHFWVGDELYCEKHAR, the abundance fitness was -0.437 ± 0.061.

On to HTCEKCSTSIANQAVRIQEGRYRHPGCYTCADCGLNLKMRPHFWVGDELYCEKHAR, for which the abundance fitness was -0.025 ± 0.12.

Consider HTCEKCSTSIANQAVRIQEGRYRHPGCYTCADCGLNLKMRDHFWVGDELYCEKHAR, for which the abundance fitness is -0.088 ± 0.15.

Turning to HTCEKCSTSIANQAVRIQEGRYRHPGCYTCADCGLNLKMRMHFWVGDELYCEKHAR, the abundance fitness is -0.386 ± 0.09.

For HTCEKCSTSIANQAVRIQEGRYRHPGCYTCADCGLNLKMRIHFWVGDELYCEKHAR, the abundance fitness is -0.673 ± 0.11.

HTCEKCSTSIANQAVRIQEGRYRHPGCYTCADCGLNLKMRKHFWVGDELYCEKHAR: the abundance fitness is -0.169 ± 0.12.

On to HTCEKCSTSIANQAVRIQEGRYRHPGCYTCADCGLNLYMRGHFWVGDELYCEKHAR, for which the abundance fitness was -0.037 ± 0.14.

For the variant HTCEKCSTSIANQAVRIQEGRYRHPGCYTCADCGLNLKMMGHFWVGDELYCEKHAR, the abundance fitness was found to be 0.063 ± 0.059.

For the variant HTCEKCSTSIANQAVRIQEGRYRHPGCYTCADCGLNLKMFGHFWVGDELYCEKHAR, the abundance fitness was -0.156 ± 0.098.

On to HTCEKCSTSIANQAVRIQEGRYRHPGCYTCADCGLNLKMSGHFWVGDELYCEKHAR, for which the abundance fitness was 0.079 ± 0.073.

On to HTCEKCSTSIANQAVRIQEGRYRHPGCYTCADCGLNLKMLGHFWVGDELYCEKHAR, for which the abundance fitness turned out to be 0.129 ± 0.074.

In the case of HTCEKCSTSIANQAVRIQEGRYRHPGCYTCADCGLNLKMTGHFWVGDELYCEKHAR, the abundance fitness was -0.009 ± 0.1.

Regarding HTCEKCSTSIANQAVRIQEGRYRHPGCYTCADCGLNLKMPGHFWVGDELYCEKHAR, the abundance fitness was found to be 0.14 ± 0.13.

With HTCEKCSTSIANQAVRIQEGRYRHPGCYTCADCGLNLKMVGHFWVGDELYCEKHAR, the abundance fitness was determined as 0.092 ± 0.063.

With HTCEKCSTSIANQAVRIQEGRYRHPGCYTCADCGLNLKMYGHFWVGDELYCEKHAR, the abundance fitness is -0.163 ± 0.12.

For the variant HTCEKCSTSIANQAVRIQEGRYRHPGCYTCADCGLNLKMDGHFWVGDELYCEKHAR, the abundance fitness is 0.027 ± 0.16.

As for HTCEKCSTSIANQAVRIQEGRYRHPGCYTCADCGLNLKMGGHFWVGDELYCEKHAR, the abundance fitness worked out at 0.219 ± 0.061.

Take HTCEKCSTSIANQAVRIQEGRYRHPGCYTCADCGLNLKMAGHFWVGDELYCEKHAR: the abundance fitness came to 0.041 ± 0.12.

HTCEKCSTSIANQAVRIQEGRYRHPGCYTCADCGLNLKMHGHFWVGDELYCEKHAR: the abundance fitness is 0.274 ± 0.11.

Consider HTCEKCSTSIANQAVRIQEGRYRHPGCYTCADCGLNLKMIGHFWVGDELYCEKHAR, for which the abundance fitness was -0.293 ± 0.12.

As to HTCEKCSTSIANQAVRIQEGRYRHPGCYTCADCGLNLKMKGHFWVGDELYCEKHAR, the abundance fitness was found to be 0.188 ± 0.079.

For the variant HTCEKCSTSIANQAVRIQEGRYRHPGCYTCADCGLNLKMEGHFWVGDELYCEKHAR, the abundance fitness was found to be 0.066 ± 0.071.

On to HTCEKCSTSIANQAVRIQEGRYRHPGCYTCADCGLNLKMNGHFWVGDELYCEKHAR, for which the abundance fitness came to 0.21 ± 0.13.

On to HTCEKCSTSIANQAVRIQEGRYRHPGCYTCADCGLNLKMCGHFWVGDELYCEKHAR, for which the abundance fitness was 0.221 ± 0.1.

For the variant HTCEKCSTSIANQAVRIQEGRYRHPGCYTCADCGLNLKMQGHFWVGDELYCEKHAR, the abundance fitness was -0.091 ± 0.11.

HTCEKCSTSIANQAVRIQEGRYRHPGCYTCADCGLNLKLRGHFWVGDELYCEKHAR: the abundance fitness is -0.123 ± 0.075.

Turning to HTCEKCSTSIANQAVRIQEGRYRHPGCYTCADCGLNLKHRGHFWVGDELYCEKHAR, the abundance fitness was -0.116 ± 0.18.

As for HTCEKCSTSIANQAVRIQEGRYRHPGCYTCADCGLNLKGRGHFWVGDELYCEKHAR, the abundance fitness was 0.223 ± 0.055.

Turning to HTCEKCSTSIANQAVRIQEGRYRHPGCYTCADCGLNLKIRGHFWVGDELYCEKHAR, the abundance fitness is -0.347 ± 0.19.

On to HTCEKCSTSIANQAVRIQEGRYRHPGCYTCADCGLNLKCRGHFWVGDELYCEKHAR, for which the abundance fitness was -0.186 ± 0.17.

With HTCEKCSTSIANQAVRIQEGRYRHPGCYTCADCGLNLKARGHFWVGDELYCEKHAR, the abundance fitness amounted to 0.226 ± 0.066.

In the case of HTCEKCSTSIANQAVRIQEGRYRHPGCYTCADCGLNLKQRGHFWVGDELYCEKHAR, the abundance fitness was 0.048 ± 0.12.

For the variant HTCEKCSTSIANQAVRIQEGRYRHPGCYTCADCGLNLKKRGHFWVGDELYCEKHAR, the abundance fitness amounted to 0.071 ± 0.1.

Take HTCEKCSTSIANQAVRIQEGRYRHPGCYTCADCGLNLKPRGHFWVGDELYCEKHAR: the abundance fitness came to 0.422 ± 0.11.

As for HTCEKCSTSIANQAVRIQEGRYRHPGCYTCADCGLNLKERGHFWVGDELYCEKHAR, the abundance fitness amounted to 0.286 ± 0.063.

As to HTCEKCSTSIANQAVRIQEGRYRHPGCYTCADCGLNLKSRGHFWVGDELYCEKHAR, the abundance fitness came to 0.057 ± 0.064.

Consider HTCEKCSTSIANQAVRIQEGRYRHPGCYTCADCGLNLKWRGHFWVGDELYCEKHAR, for which the abundance fitness was -0.523 ± 0.068.

HTCEKCSTSIANQAVRIQEGRYRHPGCYTCADCGLNLKTRGHFWVGDELYCEKHAR: the abundance fitness amounted to 0.173 ± 0.086.

Take HTCEKCSTSIANQAVRIQEGRYRHPGCYTCADCGLNLKFRGHFWVGDELYCEKHAR: the abundance fitness is -0.186 ± 0.069.

As to HTCEKCSTSIANQAVRIQEGRYRHPGCYTCADCGLNLKYRGHFWVGDELYCEKHAR, the abundance fitness came out at 0.002 ± 0.067.

Take HTCEKCSTSIANQAVRIQEGRYRHPGCYTCADCGLNLKNRGHFWVGDELYCEKHAR: the abundance fitness amounted to 0.095 ± 0.13.
